“And” between values parts separate entries of the source, which are not always exact repeats. Equal entries are not always repeated. Residues, ends and D or L forms follow the SMILES beside them. *: point of attachment. 5FAM = O=C1OC2(c3ccc(O)cc3Oc3cc(O)ccc32)c2ccc(C(=O)*)cc21
Experiments:
[1] = molecular target: T1, Bcl-xL (Homo sapiens, UniProt Q07817); test: LUMIER full-length protein interaction; assay type: binding; settings: LUMIER results for Bcl-xL; for z-score 1.1: experiment 1, duplicate 1; for z-score 1.2: experiment 1, duplicate 2; for z-score 2.1: experiment 2, duplicate 1; for z-score 2.2: experiment 2, duplicate 2
T1 construct: myc-Bcl-xL SPOT array & FP; made in house
Experimental: (§1) The LUMIER assay was carried out as previously described with the following modifications. A stable cell line expressing receptor tagged on the N-terminus with Nanoluc luciferase was created (the prey). […] Each bait construct was transfected into the receptor-luciferase cells in a 96-well format and after 48 hours the cells were lysed and transferred to 384-well plates coated with anti-FLAG. After incubation and washing, luminescence was measured to quantify how much receptor-luciferase was captured by the bait protein. Anti-Flag ELISA signal was used to exclude bait proteins that were not expressed. The experiment was carried out two times, each in duplicate.

[2] = molecular target: T2, Mcl-1 (Homo sapiens, UniProt Q07820); test: LUMIER full-length protein interaction; assay type: binding; settings: LUMIER results for Mcl-1, Z-score relative to Gaussian fit of the data; for z-score 1.2: experiment 1, duplicate 2; for z-score 2.2: experiment 2, duplicate 2; for z-score 2.1: experiment 2, duplicate 1
T2 construct: myc-Mcl-1 SPOT array & FP; made in house
Experimental: as §1

[3] = Z-score relative to Gaussian fit of the data
[4] = Z-score of the interaction relative to the Gaussian fit of the data

T1 sequence (Q07817 with tags, fused parts or gaps): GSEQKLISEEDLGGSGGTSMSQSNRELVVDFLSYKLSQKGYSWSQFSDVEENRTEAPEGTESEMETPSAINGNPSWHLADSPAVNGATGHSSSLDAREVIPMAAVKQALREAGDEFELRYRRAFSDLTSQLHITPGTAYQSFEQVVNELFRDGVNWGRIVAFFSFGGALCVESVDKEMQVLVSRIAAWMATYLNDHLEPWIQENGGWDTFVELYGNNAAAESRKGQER
T2 sequence (Q07820 with tags, fused parts or gaps): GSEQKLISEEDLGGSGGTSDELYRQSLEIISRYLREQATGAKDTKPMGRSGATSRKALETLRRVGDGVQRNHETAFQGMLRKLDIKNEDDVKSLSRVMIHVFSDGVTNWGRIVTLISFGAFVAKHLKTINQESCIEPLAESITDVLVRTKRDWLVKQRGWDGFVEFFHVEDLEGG

Compound | z-score 1.1 [1, 3] | z-score 1.2 [1, 3] | z-score 2.1 [1, 3] | z-score 2.2 [1, 3] | z-score 1.2 [2] | z-score 2.2 [2] | z-score 2.1 [2] | z-score 1.1 [1, 4] | z-score 1.2 [1, 4] | z-score 2.1 [1, 4] | z-score 2.2 [1, 4]
RNF160 (WLKGDILGEKLVNLADCLCNEDLESR) | -0.1237 | 0.7519 | 2.286 | 3.519 | 0.2603 | -0.3716 | – | – | – | – | –
FBXL3 (CHGLRELALNYHLLSDELLLALSSEK) | -0.4003 | -1.2734 | 2.098 | 0.0146 | -0.6557 | -0.175 | -0.4574 | – | – | – | –
NRN1L (DTIYQGFAECLIRLGDSMGRGGELET) | -0.79 | -2.494 | 0.3656 | 0.03743 | 1.162 | 1.343 | 0.005652 | – | – | – | –
PRKD3 (IQENVDISTVYQIFADEVLGSGQFGI) | – | – | – | – | 0.6899 | 3.546 | 3.751 | 6.764 | -0.4537 | 1.665 | 5.133
WDR60 (GGRVKLVHSALIQLGDSLSHKGNEFW) | – | – | – | – | 0.5442 | 0.563 | 0.4209 | 4.105 | 0.5337 | -0.08078 | 0.3897
SGCA (LFWTPLLVVLLAGLGDTEAQQTTLHP) | 1.122 | 0.5458 | 0.3748 | 0.07051 | 1.007 | -0.477 | 0.04852 | – | – | – | –
TMEM184C (SDIRDDISEQVRHVGRTVRGHPRKKL) | -0.516 | -0.4557 | 0.7398 | 0.3954 | 0.404 | 1.818 | 2.487 | – | – | – | –
SIPA1 (TAGLRPGARLLRVCGQTLPSLRPEAA) | 0.6815 | – | 3.9688 | 2.046 | 0.6268 | -0.3116 | -0.03415 | – | – | – | –
CC[C@H](C)[C@H](NC(=O)[C@@H]1CCCN1C(=O)[C@H](CCCNC(=N)N)NC(=O)[C@H](CCCNC(=N)N)NC(=O)[C@@H]1CCCN1C(=O)[C@H](CC(N)=O)NC(=O)[C@H](C)NC(=O)[C@H](CC(C)C)NC(=O)[C@H](CCSC)NC(=O)[C@H](CC(=O)O)NC(=O)[C@H](CO)NC(=O)[C@H](Cc1c[nH]c2ccccc12)NC(=O)[C@H](Cc1c[nH]cn1)NC(=O)[C@H](CCCNC(=N)N)NC(=O)[C@H](CC(C)C)NC(=O)[C@H](CCC(=O)O)NC(=O)[C@H](C)NC(=O)CNC(=O)[C@@H](NC(=O)[C@H](CO)NC(=O)[C@H](CC(N)=O)NC(=O)[C@H](Cc1ccc(O)cc1)NC(=O)CNC(=O)[C@@H](NC(=O)[C@H](Cc1ccccc1)NC(=O)c1ccc2c(c1)C(=O)OC21c2ccc(O)cc2Oc2cc(O)ccc21)C(C)C)[C@@H](C)O)C(=O)N[C@@H](C)C(N)=O [SYT1] (5FAM-FVGYNSTGAELRHWSDMLANPRRPIA-NH2) | -0.3372 | -0.9542 | 2.574 | 0.6781 | -0.6598 | -0.2801 | 0.132 | – | – | – | –
BBS10 (RMIVDCVSSHLKKTGDGAKTFIIFLC) | 1.141 and 1.702 | – | – | – | – | – | 0.6411 and 1.2239 | – | – | – | –
DZIP3 (NGGLLEFHKSLQEIGDKNDHWFDIDP) | 0.7197 | 0.5899 | 1.027 | -0.02772 | 0.5092 | 0.2898 | 0.307 | – | – | – | –
MAPT | 0.3413 | 1.938 | 0.8331 | – | 0.1627 | 0.6441 | – | – | – | – | –
DPF3 (SCMATVIHNPLKALGDQFYKEAIEHC) | 4.341 | 0.09731 | 0.3964 | 0.9401 | 0.1193 | -0.07055 | -0.01021 | – | – | – | –
TMEM214 (SFLSAHCASHLAWFGDSLTSLSQRLQ) | 0.1125 | -0.2947 | -0.2028 | 0.228 | -0.396 | -0.9391 | – | – | – | – | –
PPAT (RLRQLGVAKKFGVLSDNFKGKRIVLV) | -0.3811 | 0.4308 | -0.2564 | -0.4829 | 0.1831 | -0.9152 | -0.6136 | – | – | – | –
DSN1 (RAKASSLSEELKHFADGLETDGTLQK) | -1.115 | 0.4795 | -0.01103 | -0.4978 | -0.5012 | 0.2829 | 0.1019 | – | – | – | –

Compound | z-score 1.1 [1, 3] | z-score 1.2 [1, 3] | z-score 2.1 [1, 3] | z-score 2.2 [1, 3] | z-score 1.2 [2] | z-score 2.2 [2] | z-score 2.1 [2] | z-score 1.1 [1, 4] | z-score 1.2 [1, 4] | z-score 2.1 [1, 4] | z-score 2.2 [1, 4]
GBP6 (NDDTPWIARTLDNLADELTAILSAPA) | 0.2217 | -0.6971 | -0.4961 | -0.5692 | 0.7158 | -1.083 | -0.81 | – | – | – | –
DHX30 (PVESSWIAPELRLQSDDILPLGKDSG) | 5.589 | 0.08513 | 1.44 | 1.097 | 0.1736 | 0.3173 | 1.579 | – | – | – | –
ATP6AP2 (RDASKILVDALQKFADDMYSLYGGNA) | – | – | 1.607 and 2.423 | – | 0.9409 and 0.8269 | 1.567 and 1.468 | 2.599 and 2.298 | – | – | – | –
PCNXL2 (LLDFFMVSILFSKLGDLLHKLQFVLT) | -0.7258 | 0.8817 | 0.72 | 1.005 | -1.056 | -0.3857 | 0.4915 | – | – | – | –
SMPD2 (PYLSKHRADRMRRLGDFLNQESFDLA) | -0.2083 | 2.876 | -0.2736 | 2.724 | -0.1967 | -0.9514 | -0.5316 | – | – | – | –
CYBB (APEEDFFSIHIRIVGDWTEGLFNACG) | 0.3673 | -1.779 | 0.009756 | -0.6661 | 0.6104 | -1.447 | -0.8677 | – | – | – | –
CTSL2 (SQGKHGFTMAMNAFGDMTNEEFRQMM) | -0.437 | -1.625 | 0.4619 | – | -0.01526 | -0.562 | 0.02916 | – | – | – | –
P2RX7 (QCPIFRLGDIFRETGDNFSDVAIQGG) | 0.2486 | -0.6775 | 0.2039 | -0.7989 | -0.04596 | -0.3437 | -0.1664 | – | – | – | –
ACN9 (LQLHRVLPPDLKSLGDQYVKDEFRRH) | 2.487 | -0.8795 | 0.2924 | 1.441 | 0.7914 | 2.179 | 1.721 | – | – | – | –
BCL2L11 (MRPEIWIAQELRRIGDEFNAYYARRV) | – | – | – | – | 9.774 | 12.4336 | 11.6048 | – | – | – | –
CCDC57 (QAGPVSSGLALRKLGDRVQLLNLLVT) | – | – | – | – | 0.8015 | 1.811 | 1.282 | 2.807 | 1.916 | 0.2364 | 0.8316
RBL1 (WTLFVYTKGNFRMIGDDLVNSYHLLL) | 5.112 | – | 2.327 | 1.895 | 0.3355 | 0.6936 | 1.744 | – | – | – | –
HEXDC (VLELHPGAQRLHIGCDEVYYLGEGEA) | -0.9348 | -0.7792 | -0.04647 | -0.8049 | -0.6103 | -1.44 | -1.0129 | – | – | – | –
CASP8 (PFKKMDFSRNLYDIGEQLDSEDLASL) | 0.03556 | -1.065 | 0.3161 | -0.06353 | -0.8504 | -0.03009 | -0.06643 | – | – | – | –
FBXW5 (LTETSLISGNLHRIGDITSCSVLWLN) | – | – | 1.152 and 2.217 | – | – | – | – | – | – | – | –

Source: PMC4072508, “Genome-Wide Prediction and Validation of Peptides That Bind Human Prosurvival Bcl-2 Proteins” (PLoS Computational Biology, 2014)
